Data set [1] concerns the target T1, CaHms1 DBD (Candida albicans, UniProt A0A1D8PMZ4 463-685). Put plainly: competition. As to conditions: unlabeled competitor vs labeled N1; at least one order of magnitude; Standard EMSA buffer (composition by reference), 90 min, room temperature, 6% polyacrylamide gel in 0.5x TGE; pH and salt not given. For orientation: Mobility shift assays separate free from complexed probe on a gel.

Data set [2] addresses T2, AfSrbA DBD (Aspergillus fumigatus, UniProt Q4WIN1 145-266).
T2 sequence: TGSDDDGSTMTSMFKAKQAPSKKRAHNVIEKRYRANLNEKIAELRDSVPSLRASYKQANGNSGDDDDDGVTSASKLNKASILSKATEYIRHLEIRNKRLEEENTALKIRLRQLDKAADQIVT
Put plainly: competition. To be noted: unlabeled competitor vs labeled N1; at least one order of magnitude; Standard EMSA buffer (composition by reference), 90 min, room temperature, 6% polyacrylamide gel in 0.5x TGE; pH and salt not given.

In data set [3] the target is T1, CaHms1 DBD. As to the kind of experiment: EMSA; 0-100 nM protein; Standard EMSA buffer (composition by reference), 90 min, room temperature, 6% polyacrylamide gel in 0.5x TGE; pH and salt not given. As to conditions: protein: recombinant; tags: N-terminal 6xHis or 6xHis-MBP (primers: pLIC-H3); chain copies: 2; label: 32P.
The target of data set [4] is T2, AfSrbA DBD. The description is as above. To be noted: protein: recombinant; tags: N-terminal 6xHis or 6xHis-MBP (primers: pLIC-H3); chain copies: 2; label: 32P.
The target of the next data set is T3, CpHms1 DBD (Candida parapsilosis, UniProt G8B9T4 486-659).
T3 sequence: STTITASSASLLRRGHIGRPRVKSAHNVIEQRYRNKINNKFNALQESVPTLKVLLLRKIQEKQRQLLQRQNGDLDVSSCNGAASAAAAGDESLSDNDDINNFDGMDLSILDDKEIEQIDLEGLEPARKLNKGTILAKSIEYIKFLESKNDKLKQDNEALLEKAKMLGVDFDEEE
The description is as above. To be noted: protein: recombinant; tags: N-terminal 6xHis or 6xHis-MBP (primers: pbRZ75); chain copies: 2; label: 32P.

The target of the next data set is T4, CaCph2 DBD (Candida albicans, UniProt Q59RL7 197-302).
T4 sequence: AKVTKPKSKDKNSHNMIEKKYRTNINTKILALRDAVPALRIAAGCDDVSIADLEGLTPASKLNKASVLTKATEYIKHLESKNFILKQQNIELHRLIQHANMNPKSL
As to the kind of experiment: competition; little if any discrimination from N3; Standard EMSA buffer (composition by reference), 90 min, room temperature, 6% polyacrylamide gel in 0.5x TGE; pH and salt not given. As to conditions: protein: recombinant; tags: N-terminal 6xHis or 6xHis-MBP (primers: pLIC-H3); chain copies: 2; label: 32P.

Turning to palindromic canonical E-box fragment, the binding signal (fold weaker than N1) with CaHms1 DBD [1] and in the data set with AfSrbA DBD [2] was more than 10 throughout.

B1: non-palindromic site fragment (HMS1 cognate site) (dsDNA)
DNA 1: ACAAAAAAAAATCAGGCCATTTGTAATACT
DNA 2: AGTATTACAAATGGCCTGATTTTTTTTTGT
As to B1, the binding result in the data set with CaHms1 DBD [3], with AfSrbA DBD [4], with CpHms1 DBD and with CaCph2 DBD was “binds” in each case.

Values taken from paper PMC6329520, “Diversification of DNA binding specificities enabled SREBP transcription regulators to expand the repertoire of cellular functions that they govern in fungi”.
